# Laboratory results as given in the nanobody polyreactivity screen of Harvey et al. (2022).
# Test: yeast display, Sf9 membrane polyspecificity reagent, FACS + sequencing; frameworks hold sequencing errors
# Outline: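 Synthetic nanobody libraries on Saccharomyces cerevisiae BJ5465 were galactose-induced for 36–48 hours, stained 1 hour at 4 °C with 10% biotinylated, detergent-solubilized Sf9 membrane reagent and enriched on streptavidin microbeads. FACS then separated cells into low and high (top ~1%) gates by anti-HA (expression) and streptavidin (reagent binding) fluorescence. Genes were colony-PCR amplified, MiSeq 2 × 250 sequenced and CDR-length filtered. A clone's polyreactivity label is that of its gate of origin.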
row,Sequence,polyreactivity (PSR sort gate)
1,QVQLVESGGGLVQAGGSLRLSCAASGSTFWYNAMGWYRQAPGKERELVAAITQSGTRTYYADSVKGRFTISRDNAKNTVFLQMNSLKPEDTAVYYCAAGNAPYYRYGSKKYGYWGQGTQVTVSS,high polyreactivity
2,QVQLVESGGGLVHAGGSLRLSCAASGSIFQGYAMGRYRQAPGKERDLVAAITASGGSTYYADSVKGRFTISRDNAKNTVYLQMNSLKPEDTAVYYCATDSYWRQDLYRYEYWGQGTQVTVSA,high polyreactivity
3,QVQLVESGGGLVQAGGSLRFSCAASGRIFSGNGMGWYRQAPGKEREFVAAIRFSSGSTYYADSVKGRFTISRDNAKNTVYLQMNSLKPEDTAVYYCARPSIPRRYDYWGQGTQVTVSS,high polyreactivity
4,QVQLVESGGGLVQAGGSLRLSCAASGSTFPRYAMGWYRQAPGKERELVASITSDGGSTYYADSVKGRFTISRDNAMNTVYLQLNSLKPEDTAVYYCNKVTYRGYRRYGYWGQGTQVTVSS,high polyreactivity
5,QVHLVESGGGLVQAGGSLRLSCAASGSTFTYYDMVWYRKAPGNETELLATIDSTTRTYYADSVKGRFTISRDNAKNTVSLQMNSLKPEETAVYYCAADLTWAYFYYLFYRYDYWGQGTQVTVSS,low polyreactivity
6,QVQLVESGGGLVQAGGSLRLSCAASGRILYGYAMGWYRQAPGTERELVASLSSGGRTYYADSVKGRFTISRDNAKNTVYLQMNSLKPEDTAVYYCAAVAYGNWYRYYYWGQGTQVTVSS,high polyreactivity
7,QVQLVESGGGLVQAGGSLRLSCAASGRIFYGYAMGWYRQAPGKERELVAAISSGGITYYADSVKGRFTISRDNAKNTVYLQMNSLKPEDTAVYYCAAEPWYKFDYDYWGQGTQVTVSS,low polyreactivity
8,QVQLVESGGGLVQAGGSLRLTCAASGSIFGNNAMGWYRQATGKERELVAVITDGGNTYYADSVKGRFTISRDNAKNTVYLQMNSLKPEDTAVYYCNAEWWGDSVYWGQGTQVTVSS,low polyreactivity
9,QVQLVESGGGLDQAGGSLRLSCAASGFIFRYYTMGWYRQAPGKERELFATITSGGSTYYADSVKGRFTISRDNAKNTVYLQMNSLKPEDTAVYYCAKYHSLRRQYSKFRPTFDYWGQGTQVTVSS,high polyreactivity
10,QVQLVESGGGLVQAGGSLRLSCAASGRIFGGYAMGWYRQAPGKERELVAVISGRGGSTYYADSVKGRFTISRDNAMNTVYLQMNSLKPEDTAVYYCTVYRRIQRYGPQSYDYWGQGTQVTVSS,high polyreactivity
11,QVQLVESAGGLVQAGGSLSLICAASGFIFDSYAMGWSRQAPGKERELVAAIDKRGGRTYYADSEKGRFTISRDNAKNTVYLQMNSLKPEDTAVYFCAADDYTGYGYWGQGTQVTVSS,high polyreactivity
12,QVQLVESGGGLVQAGGSLRLSCAASGFIFWFNAIGWSRQEPGKEREWVATISWSDTSTYYADSVKGRFTISRDNAKNTVYLQMNSLKPEDTAVYYCATDGRETWLPEYYWGQGTQVTVSS,low polyreactivity
13,QVQLQESGGGLVQAGASLRLSCAASGTIFLFRNMGWHRQAPGKERELVAGINGGTTTYYADSVIGRFTISRDNAKNTVYLQMNSLKPDDTAVYNCAAGASRLTYYDYWGLGTQVTVSS,low polyreactivity
14,QVQLVESGGGLVQAGGSLRLSCPASGSTFAIYGMGWYRQAPGKERELVAGITRGGSTNYADSVKGRFTISRDNAKNTVYLQMNILKPEDTAVYYCNSPLGVRRFKSKGRSHYEYWGQGTQVSVSS,high polyreactivity
15,QVQLVESGGGLVQAGGSLRLSCAASGRTFFGRNVMGWYRPAPGNDRELVAAITSSGASTYYADSVKGRFTISRDNAKNTVYLQMNSLKPEDTAVYYCAAVRYVWQGYDYWGQGTQVTVSS,high polyreactivity
16,QVQLVESGGGLVQAGGSLRLSCAASGFTFWANAMGWYRQAPGKERELVAAISWSGGSTTYADSVKGRFTISRDNAKNTVYLQMNSLKPEDTAVYYCATDYGHYVTYRLSDYWGQGTQVTVSS,low polyreactivity
17,QVQLVESGGGLVQAGGSLRLSCAASGLTFYQNAMGWYRPAPGTERELVAGISSVGSTKYADSVKGRFTISRDNAKNTVYLQMNSLKPEDTAVYYCAPRFYAFRKGYYYWGQGTQVTVSS,high polyreactivity
18,QVQLVESGGGLVQAGGSLRLSCAASGFIFFVNAMGWSRQAPGKEREFVATITGSGGSTYYADSVKGRFTISRDNAKNTVYLQMNSLKPEDTAVYYCAADSLTPKSASDYWGQGTQVTVSS,low polyreactivity
19,LVQLVESGGGLVQAGGSLRLSCAASGNTFVSNAMGWYRQAPGKERELVAAIDSGGSTNYADSVKGRFTISRDNAKNTVYLQMNSLKPDDTAVYYCTRTSVYYYYWGQGTQVTVSS,low polyreactivity
20,QVQLLESGGGLFQAGGSLRLSCAASGRIFDPYAMGWYRKAPWKETELVAAISWRGGSTNYADSVKGRFTISRDNAKNTVYLQMNSLKPEDTAVYYCAAVPVRYRYSYGYYYWGQGTQVTVSS,high polyreactivity
21,QVQLVESGGRLVQAGGSLRLRCAASGFIFLVNAMGWYRQARGKESELVAAITTSGASTYYADSVKGRFTISRDNAKNTVYLQMNSLKPEDTAVYYCAAGSYARPEYGYWGQGTQVTVSS,low polyreactivity
22,QVQLVESGGGLVQAGGSLRLSCAASGSIFYWYAMGWYRQAPGKERELVASIRWSGGTYYADSVKGRFTISRDNAKNTVYLQMNSLKPEDTAVYYCNKGGGRGHFEYWGQGTQVTVSS,low polyreactivity

row,Sequence,polyreactivity (PSR sort gate)
1,QVQLVESGGGLVQAGGRLRLSCAASGFTFYYYAMGWYRQAPGKEREMVAAISRSGGSTYYADSVKGRFTISRDNAKNTVYLQMNSLKPEDTAVYYCNTLRRTWFQENDYWGQGTQVTVSS,high polyreactivity
2,QVQLVESGGGLVQAGGSLRLSCAASGRTFSNNAMGWYRQAPGKERELVAAISSTGGRTYYADSVKGRFTISRDNAKNTGYLQLNSLKPEDTAVYYCAATYVHYPSLGYDYWGQGTQVTVSS,high polyreactivity
3,QVQLVESGGGLVQAGGSLRLSCAASGSTFGPYAMGWYRQAPGKEREFVAGISKSTSSTYYADSVKGRFTISRDNAKNTVYLQMNSLKPEDTAVYYCAAQGGRNRGYRYYWGQGTQVTVSS,high polyreactivity
4,QVQLVESGGGLVQAGGSLRLSCAASGIIFTWYAMGWYRQAPGKERELVAAISGSGDITYYADSVKGRFTISRDNAKNTVFLQMNSLKPEDTAVYYCAADPWTYWEDYDYWGQGTQVTVSS,low polyreactivity
5,QVQLVESGGGLVQAGGSLRLSCAASGSTFYFYAMGWYRQAPGKERELVATISYSDGSTYYADSVKGRFTISRDNAKNTVYLQMNSLKPEDSAVYYCAKGSNDWVNFGYDYWGQGTQVTVSS,low polyreactivity
6,QVQLVESGGGLVQAGGSLRLSCADSGSISDYYAMGWYRQAPGKERELVAAISWDGGSTYYADSVKGRFTISRDNAKNTVYLQMNSLKPEDTAVYYCAAVAWEGSGSEMYSWGQGTQVTVSS,low polyreactivity
7,QVQLVESGGGLVQAGGSLRLSCAAYGLTFHYYDMGWYRQAPGKERELVAAISAGGVNTYYADSVKGRFTISRDNAKNTVYLQMNSLKPEDTAVYFCAADYYVDVWSYTYGYWGQGTQVTVSS,high polyreactivity
8,QVQLVESGGGLVQAGGSLRLSCAASGSIFYDYVMGWYRQAPGKERELVAAITRGGRTYYADSVKGRFTISRDNAKNTVYLQMNSLKPEDTAVYYCNAGRHQGYDWGQGTQVTVSS,high polyreactivity
9,QVQLVESGGGLVQAGGSLRLSCAASGLTFRRYDMGWYSQAPGKERELVAAITGGGSTYYADSVKGRFTISRDNAKNTVYLQMNSLKPEDTAGYYCAAGTWYWSYAYDYWGQGTQVTVSS,high polyreactivity
10,QVQLVESGGGLVQAGGSLRLSCAASGFTFIYYAMGWYRQAPGKERELVAAISRVDSTYYADSVKGRFTISSDNAKNTIYLQMNRLKPEDTAVYYFAAASQVRRDHGYWGQGTQVTVSS,low polyreactivity
11,QVQLVESGGGVVQAGGSLRLSCAASGIIFLYNVMGWYRQAPAKERELVAAISWRGGTYYAHSVKGRFTISRDNAKNSVYLQMNSLKPEDTAVYYCNTYPAASLYGFSYPYRYDSWGQGTQVTVSS,high polyreactivity
12,QVQLVESGGGLVQAGGSLRLSSAASGSTSPRNAMGWYRQAPGKERELVAAISSGGRTNYADSVKGRFTISRDNAKNTVYFQMHSLKPEDTAVYYCAAVVHSTYWAQGTQVTVSS,low polyreactivity
13,QVQLVESAGGLVQAGGSLRLSCAASGYIFWENAMGWYRQAPGKERELVAAITVSGGGTYYADSVKGRFTISRDNAKNTVYLQMNSLKPEDTAVYYCAADEDNPWLWFYYWGHGTQVTVSS,low polyreactivity
14,QVQLEESGGGLVQAGGSLRLSCAASGITIRIYAKGCYRQAPGKERELVAGISSSGSTNYADSVKGRFTISRDNAKNTVYLQMNSLKPEDTAVYYCAADAFYIFDYWGQGTQVTVSS,high polyreactivity
15,QFQLVESGGGLVQAGGSLRLSCAASGRIFDLNAMGWYRQAPGKERELVAAITWSGDSTYYADSVKGRITISRDNAKNTVYLQLNSLKPEDTAVYYCAAASRTSYSWVDYEFDYWGQGTQVTVSS,low polyreactivity
16,QVQVVESRGGLVQAGGRLRLSCAASGSTFGVNAMGWYRTAPGKERELVAAISYTGGSTYYADSVKGRFTISRDNAKNTVYLQMNSLKAEHTAVSYCAVEVGYTDSPYSYDYWGQGTQVTVSS,low polyreactivity
17,QVQLVESGGGLVQAGGSLRLSCAASGIIFEYYAMGWYIQAPGKERELVAAISSDTSTNYADSVKGRFTISRDNAKNTVYLQMNSLKPEDTAVYYCNADAYYDTYGIGVGTDYDYWGQGTQVTVSS,low polyreactivity
18,QVQLVESGRGLVQAGGSLRLSCAASGLNFYDNMGWYRQAPGKERDLVAAISSSGGSTSYADSVKGRFTISRDNAKNTVYLQMNSLNPEDTAVYYCAAEWYPYPWGYGYWGQGTQVTVSS,low polyreactivity
19,QVQLVESGGGLVQAGGSLRLSCAASGFIFPNNAMGWYRQAPGKERELVARISYGGGDTHYADSVKGRFTISRDNAKNTVYLERNSLKPEDTAVYYCAVKDGQDDYWGQGTQVTVSS,low polyreactivity
20,QVQLVESGGGLVQAGGSLRLSCAASGRTFRRYTMGWYRQAPGKERELVAAITSGGRTNYADSVKGRFTISRDNAKNTVYLQMNSLKPEDTAVYYCNAQNEIWRVTFSPFDRWGYDYWGQGTQVTVSS,low polyreactivity
21,QVQLVESGGGLVQAGGSLRLSCAASGSIFYYYAMGWYRQAPGKEREFVAAITKRADRTYYADSVKGRFTISRDNAKNTVYLQMNSLKPEDTAVYYCNADFVWRNGYLGFYRYDYWGQGTQVTVSS,low polyreactivity
